These results are taken from US10087260B2, “Anti-HER2 antibody and conjugate thereof” (REMEGEN, LTD., priority 2013, dated 2018).

“Also recorded” adds a separate entry of the source. Square brackets hold non-standard residues; d marks the D form. Peptide text beside a SMILES is read from it. * marks the point of attachment. Dolaproine = CO[C@@H]([C@@H]1CCCN1)[C@@H](C)C(=O)O; Dil = CC[C@H](C)[C@H](NC)[C@@H](CC(=O)O)OC; X1 = C[C@@H](N*)[C@@H](O)c1ccccc1; NMeV = CN[C@H](C(=O)O)C(C)C A value given as a limit tells only on which side of the number the result lay.

The subject of series [1] is NCI-N87 human gastric cancer. Briefly: NCI-N87 human gastric cancer nude mouse subcutaneous transplantation tumor model. As to conditions: 200 mg/kg, dosing once per week, for 21 days. The series is classed as in vivo. Here is the method: [Worded in the source for another cell line; this cell line is reported under the same test.] (§1) SPF-level BALB/c nude mice were inoculated subcutaneously with a certain amount of BT-474/L1.9 tumor cells, and after the tumor growing to 100-200 mm3, the animals were randomly grouped. […] The tumor volume was measured 2 times a week. […] The data were recorded. The tumor volume and the tumor-inhibition rate of each tumor-bearing mouse were calculated at different observation time points.

Series [2] relates to BT-474/L1.9 human breast cancer. Briefly: Herceptin- and Lapatinib-resistant BT-474/L1.9 nude mouse subcutaneous transplantation tumor model. The series is classed as in vivo. As for the experimental part:
as §1

Series [3] can be described thus: Toxicity in SD rat, single intravenous infusion. It is filed as in vivo. Here is the method: SPF-level SD rats (the certificate No. is SCXK (jing)2012-0001) purchased from Beijing Vital River Laboratories Animal Technology Co, Ltd. were randomly divided into 7 groups according to gender, in which there were 10 rats in a group with half male and half female. These 7 groups included physiological saline negative control group, 0.48 mg/kg MMAE control group, 40 mg/kg RC48 naked antibody control group and series of RC48-vc-MMAE dose groups, in which the rats were dosed via tail vein infusion, and the experimental observation period was 21 days. The body weights were weighted at D1 (pre-dosing), D8, D15 and D22. After the observation period, the animals were euthanized and performed a general pathological anatomical observation, and the abnormal tissues or organs observed by the general anatomical observation were subjected to a histological examination.

Series [4] deals with chronic non-Hodgkin's lymphocytoma (NHL). To be noted: cited from earlier work.
In series [5] the test system is recurrent or refractory Hodgkin's lymphoma. As to conditions: cited from earlier work.
The target in series [6] is T1, HER2 on BT474 cell surface (Homo sapiens, UniProt P04626).
T1 construct: HER2 which was endogenously expressed in human breast cancer cells; endogenous in cells; host or cells: BT474 human breast cancer cells
The experiment in a line: Flow cytometry binding curve with HER2 on BT474 cell surface. To be noted: BT474 cells, antibody titration, read-out: Binding affinity Kd. As for the experimental part: (§2) After 2 times of thoroughly washing with 4 ml cold PBS, the antibodies binding with the cell surface were detected by R-PE-coupled goat anti-human IgG Fc specific second antibody (15 μl, 25 μg/mL), and then analyzed by flow cytometer (BD FACSCalibur).
Background: Flow cytometry measures light scatter and fluorescence of single cells or particles in a stream.

For series [7], the system named is HER2+ cells SK-BR-3, BT474. Briefly: Flow cytometry binding with HER2 positive breast cancer cells. It is filed as cell-based, human. As to conditions: 6 μg antibody, SK-BR-3 and BT474. As for the experimental part: as §2
Series [8] has as its system BT474 human breast cancer transplantation tumor. Briefly: Tumor inhibition of RC48, BT474 human breast cancer transplantation tumor model. As to conditions: 10 mg/kg, administered three times. The series is classed as in vivo, nude mouse. An excerpt:
Human breast cancer BT474 nude mouse transplantation tumor model was established by inoculating BT474 cells into nude mouse subcutaneously. After growing continuously in vivo for 3 generations, the tumor tissue which grew vigorously was taken and cut into about 1.5 mm3, and inoculated subcutaneously to right-side armpit of nude mouse (provided by Shanghai Slac Laboratory Animal Co. Ltd., with the certificate No. 2007000540582 and license No. SCXK(hu)2012-0002) under sterile conditions. The diameter of the nude mouse transplantation tumor was measured by vernier caliper. The animals were grouped randomly until the tumor grew up to 100˜300 mm3.

The test system of series [9] is BT474 human breast cancer tumor. The series is classed as in vivo. To be noted: 10 mg/kg, three administrations, 37 days after dosing. Here is the method:
Five millions of BT474 cells were suspended in PBS, and inoculated to the armpit of BALB/c nude mouse (provided by Shanghai Slac Laboratory Animal Co. Ltd., with the certificate No. 2007000540582 and license No. SCXK(hu)2012-0002). After the tumor was formed, the tumor tissue which grew vigorously was taken and cut into about 1.5 mm^3, and inoculated subcutaneously to the right-side armpit of nude mouse under sterile conditions. The diameter of the nude mouse transplantation tumor was measured by vernier caliper. The animals were grouped randomly until the tumor grew up to 100˜300 mm^3.

Series [10] concerns MDA-MBA468. Briefly: Flow cytometry binding with HER2 negative cells. It is filed as cell-based, human. To be noted: 6 μg antibody. As for the experimental part: as §2
In series [11] the target is T2, HER2-ECD (Homo sapiens, UniProt P04626).
T2 construct: made in house; host or cells: HEK293
The experiment in a line: ELISA HER2-ECD binding affinity constant of antibodies. As to conditions: ELISA on coated HER2-ECD; average of 3 independent assays. As for the experimental part:
HER2-ECD as described above was used as the antigen for immunizing the mouse and monoclonal antibody generation. Immunization, hybridoma cells fusion and primary screen were conducted according to standard procedures (reference: WHO Technical Report Series, No. 822, 1992 Annex 3). Four Balb/c mice (commercially obtained from Shanghai Slac Laboratory Animal Co. Ltd.) were immunized with equal volume of well-blended 0.25 ml HER2-ECD protein (50-100 μg) and 0.25 ml Freund's complete adjuvant (Difco Lab). Two weeks later, the second injection was carried out with Freund's incomplete adjuvant (Difco Lab) in which the amount of antigen was 25-50 μg/0.5 ml/mouse. Three weeks later, the third injection was carried out in which the amount was the same with that in the second injection. Ten days after the third injection the blood was drawn. The mice serum were detected by enzyme-linked immunosorbent assay (ELISA), and the spleens of the two mice with highest anti-HER2 antibody titer in serum were taken, which were then fused with the myeloma cell P3X63Ag8 (ATCC CRL-1580). […] Murine-derived anti-HER2 antibody was detected by the goat F(ab′)2 anti-murine IgG Fc specific second antibody coupled with horse radish peroxidase (Invitrogen Inc.).

In series [12] the target is HER2 (Homo sapiens, UniProt P04626). Briefly: Antigen binding specificity ELISA. As to conditions: 20 ng antigen per well. Here is the method: (§3) HER2-ECD as described above was used as the antigen for immunizing the mouse and monoclonal antibody generation. Immunization, hybridoma cells fusion and primary screen were conducted according to standard procedures (reference: WHO Technical Report Series, No. 822, 1992 Annex 3). Four Balb/c mice (commercially obtained from Shanghai Slac Laboratory Animal Co. Ltd.) were immunized with equal volume of well-blended 0.25 ml HER2-ECD protein (50-100 μg) and 0.25 ml Freund's complete adjuvant (Difco Lab). Two weeks later, the second injection was carried out with Freund's incomplete adjuvant (Difco Lab) in which the amount of antigen was 25-50 μg/0.5 ml/mouse. Three weeks later, the third injection was carried out in which the amount was the same with that in the second injection. Ten days after the third injection the blood was drawn. The mice serum were detected by enzyme-linked immunosorbent assay (ELISA), and the spleens of the two mice with highest anti-HER2 antibody titer in serum were taken, which were then fused with the myeloma cell P3X63Ag8 (ATCC CRL-1580). The fused cells were diluted onto ten 96-well plates, and the preliminary screen was carried out through ELISA method depending on the binding capacity with HER2-ECD. In a classical ELISA assay, the Nunc Maxisord 96-well plate was coated with HER2-ECD (0.2-1 μg/ml), and then incubated with gradient diluted mouse serum or hybridoma supernatant (100 μL). Murine-derived anti-HER2 antibody was detected by the goat F(ab′)2 anti-murine IgG Fc specific second antibody coupled with horse radish peroxidase (Invitrogen Inc.).
On the technique in general: In an ELISA, binding on a coated surface is turned into a signal by an enzyme label.

The target in series [13] is EGFR (Homo sapiens, UniProt P00533). Briefly: Antigen binding specificity ELISA. As to conditions: 20 ng antigen per well. Here is the method:
[Worded in the source for another target; used here, by the source, with some conditions changed.] as §3

The target in series [14] is HER3 (Homo sapiens, UniProt P21860). The experiment in a line: Antigen binding specificity ELISA. To be noted: 20 ng antigen per well. Here is the method: [Worded in the source for another target; used here, by the source, with some conditions changed.] as §3
In series [15] the target is HER4 (Homo sapiens, UniProt Q15303). The experiment in a line: Antigen binding specificity ELISA. To be noted: 20 ng antigen per well. Here is the method: [Worded in the source for another target; used here, by the source, with some conditions changed.] as §3
HER4, sequence (Q15303 26-1308, species assumed): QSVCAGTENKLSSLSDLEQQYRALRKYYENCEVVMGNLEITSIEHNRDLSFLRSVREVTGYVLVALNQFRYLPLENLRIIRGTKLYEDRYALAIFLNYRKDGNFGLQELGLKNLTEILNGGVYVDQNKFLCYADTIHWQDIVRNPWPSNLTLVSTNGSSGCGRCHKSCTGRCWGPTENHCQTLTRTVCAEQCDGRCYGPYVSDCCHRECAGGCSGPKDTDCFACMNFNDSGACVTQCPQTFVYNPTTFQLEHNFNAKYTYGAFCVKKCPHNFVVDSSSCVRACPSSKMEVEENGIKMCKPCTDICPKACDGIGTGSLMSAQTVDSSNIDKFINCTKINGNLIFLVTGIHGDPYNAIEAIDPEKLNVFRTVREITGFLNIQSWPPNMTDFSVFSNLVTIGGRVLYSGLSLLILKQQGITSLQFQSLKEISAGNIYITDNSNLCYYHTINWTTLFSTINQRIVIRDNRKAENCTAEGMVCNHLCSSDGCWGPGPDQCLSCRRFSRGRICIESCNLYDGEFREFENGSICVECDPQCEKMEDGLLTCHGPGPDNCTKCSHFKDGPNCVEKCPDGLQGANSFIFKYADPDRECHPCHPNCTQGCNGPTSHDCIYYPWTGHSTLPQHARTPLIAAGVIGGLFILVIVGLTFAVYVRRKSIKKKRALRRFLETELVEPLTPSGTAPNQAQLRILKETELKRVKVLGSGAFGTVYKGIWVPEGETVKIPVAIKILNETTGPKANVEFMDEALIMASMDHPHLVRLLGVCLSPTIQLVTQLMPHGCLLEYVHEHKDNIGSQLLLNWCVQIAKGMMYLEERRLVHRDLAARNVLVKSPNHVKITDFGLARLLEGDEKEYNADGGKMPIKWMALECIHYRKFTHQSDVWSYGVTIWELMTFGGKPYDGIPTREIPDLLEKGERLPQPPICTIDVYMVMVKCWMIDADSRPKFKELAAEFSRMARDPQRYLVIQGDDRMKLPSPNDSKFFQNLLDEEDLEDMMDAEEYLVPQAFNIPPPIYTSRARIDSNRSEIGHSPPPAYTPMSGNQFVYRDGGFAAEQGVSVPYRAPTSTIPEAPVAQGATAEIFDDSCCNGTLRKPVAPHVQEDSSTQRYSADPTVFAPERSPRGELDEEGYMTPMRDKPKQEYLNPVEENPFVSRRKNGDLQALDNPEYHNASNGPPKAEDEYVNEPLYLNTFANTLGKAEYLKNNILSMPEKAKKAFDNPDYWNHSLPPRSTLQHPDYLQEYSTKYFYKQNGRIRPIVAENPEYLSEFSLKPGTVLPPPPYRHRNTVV

Consider `CS(=O)(=O)CCNCc1ccc(-c2ccc3ncnc(Nc4ccc(OCc5cccc(F)c5)c(Cl)c4)c3c2)o1` [Lapatinib], for which the tumor-inhibition rate was 78% in series [1] and 45% in series [2] (200 mg/kg, dosing everyday).
`CC[C@H](C)[C@@H]([C@@H](CC(=O)N1CCC[C@H]1[C@H](OC)[C@@H](C)C(=O)N[C@H](C)[C@@H](O)c1ccccc1)OC)N(C)C(=O)[C@@H](NC(=O)[C@@H](NC)C(C)C)C(C)C` [MMAE, Monomethyl auristatin E, reference compound] (H-[NMeV]V[Dil][Dolaproine]-X1): the “animals found dead during the experiment” value in series [3] (0.48 mg/kg MMAE control group, single tail vein infusion, 21 days) is given as 9/10.
As for “Rituxan: monoclonal antibody drug against lymphocytoma such as NHL”, the total response rate in [4] (Phase II clinical study, NHL, used alone) is recorded as 6%. In addition, the effective rate result in series [4] (in combination with standard chemotherapy, chronic lymphocytoma) is “up to 90%”.
T-DM1 gave a tumor-inhibition rate in series [2] (5 mg/kg, once per week, totally 2 times) of 58%.
brentuximab vedotin: the “patients achieving partial response” value in series [5] (Phase II, 102 patients) is on record as 40%. In addition, in series [5] (median treatment course 6.7 months), the overall response rate was 73%. Also, the complete response rate in series [5] (median treatment course 20.5 months) is recorded as 34%.

B1: RC48: humanized anti-HER2 antibody RC48, derived from mRC48 antibody by humanized engineering; human IgG1κ (antibody, chains of the INN, looked up, V domains shown)
VH: EVQLVQSGAEVKKPGATVKISCKVSGYTFTDYYIHWVQQAPGKGLEWMGRVNPDHGDSYYNQKFKDKATITADKSTDTAYMELSSLRSEDTAVYFCARNYLFDHWGQGTLVTVSS
VL: DIQMTQSPSSVSASVGDRVTITCKASQDVGTAVAWYQQKPGKAPKLLIYWASIRHTGVPSRFSGSGSGTDFTLTISSLQPEDFATYYCHQFATYTFGGGTKVEIK
As for B1, the results for the Kd in [6] and in [11] were 4 nM and 0.044 nM, respectively. In addition, the “binding with HER2 positive cells” value in series [7] is given as “strong binding; also recorded: higher binding affinity”. In series [8], the “tumor-inhibitory effect on BT474 tumors” value is “inhibited; also recorded: significantly better tumor-inhibitory effect”. Besides, the “tumor volume as % of the control group” value in series [9] came out at 83%. In addition, the “binding with HER2 negative cells” value in series [10] is “no binding”. Further, the “binding capacity with HER2” value in series [12] was “strong binding capacity; also recorded: only shows specific binding affinity with HER2”. Also, in series [13], the “binding capacity with EGFR” value was “nearly had no binding capacity; also recorded: not with EGFR, HER3 and HER4”. Besides, the “binding capacity with HER3” value in series [14] was “nearly had no binding capacity; also recorded: not with EGFR, HER3 and HER4”. Also, the “binding capacity with HER4” value in [15] is “nearly had no binding capacity; also recorded: not with EGFR, HER3 and HER4”. In addition, the toxicity response symptom result in series [3] (40 mg/kg, single intravenous infusion) is “no evident toxicity response symptom”. Further, the “maximal tolerant dose of rat” value in [3] (single intravenous infusion) is recorded as ≥ 40 mg/kg.

A word on the Kd: it is the constant that tells how readily two partners part at equilibrium.
